Consider eleven molecules from patent US20190022241A1 (AbbVie / Abbott, published 2019).

For assay [1], the target named is T1, hSEZ6-ECD-His (human, UniProt Q53EL9 20-925).
T1 construct: the whole entry is named; also called recombinant SEZ6-His; human recombinant SEZ6-His
Put plainly: SPR, Biacore 2000 (data not shown).

For assay [2], the target named is T2, human SEZ6L ECD-His (human, UniProt Q9BYH1 29-955).
T2 construct: whole entry named
T2 sequence: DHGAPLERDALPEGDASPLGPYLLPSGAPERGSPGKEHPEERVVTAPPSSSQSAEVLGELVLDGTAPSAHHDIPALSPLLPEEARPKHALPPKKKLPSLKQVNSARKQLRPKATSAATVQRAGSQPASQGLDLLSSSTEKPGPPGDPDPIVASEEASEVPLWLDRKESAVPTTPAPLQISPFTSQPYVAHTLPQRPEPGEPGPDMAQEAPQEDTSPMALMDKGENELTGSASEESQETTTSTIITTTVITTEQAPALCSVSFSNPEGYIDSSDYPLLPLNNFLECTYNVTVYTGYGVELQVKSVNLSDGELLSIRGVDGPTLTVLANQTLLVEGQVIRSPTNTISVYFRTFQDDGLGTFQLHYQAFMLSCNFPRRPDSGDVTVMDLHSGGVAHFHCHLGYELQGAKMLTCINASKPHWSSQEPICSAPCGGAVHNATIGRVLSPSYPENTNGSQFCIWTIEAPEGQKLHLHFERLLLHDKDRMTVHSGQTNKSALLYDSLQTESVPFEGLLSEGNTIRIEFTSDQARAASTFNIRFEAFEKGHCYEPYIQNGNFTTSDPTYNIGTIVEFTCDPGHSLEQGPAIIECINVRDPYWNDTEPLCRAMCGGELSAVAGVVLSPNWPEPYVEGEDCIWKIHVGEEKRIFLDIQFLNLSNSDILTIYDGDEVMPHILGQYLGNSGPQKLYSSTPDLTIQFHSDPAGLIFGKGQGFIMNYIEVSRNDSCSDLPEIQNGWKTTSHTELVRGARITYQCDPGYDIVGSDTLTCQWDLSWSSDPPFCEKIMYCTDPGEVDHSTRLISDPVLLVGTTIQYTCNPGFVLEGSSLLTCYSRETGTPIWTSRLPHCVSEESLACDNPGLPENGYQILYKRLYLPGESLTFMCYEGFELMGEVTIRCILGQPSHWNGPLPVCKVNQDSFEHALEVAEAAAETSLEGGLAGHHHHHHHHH
Put plainly: ELISA on plates coated with SEZ6L protein.

Assay [3] deals with T3, human SEZ6L2 ECD-His (human, UniProt Q6UXD5 28-843).
T3 construct: whole entry named
T3 sequence (Q6UXD5 other isoform, or with tags, fused parts or gaps): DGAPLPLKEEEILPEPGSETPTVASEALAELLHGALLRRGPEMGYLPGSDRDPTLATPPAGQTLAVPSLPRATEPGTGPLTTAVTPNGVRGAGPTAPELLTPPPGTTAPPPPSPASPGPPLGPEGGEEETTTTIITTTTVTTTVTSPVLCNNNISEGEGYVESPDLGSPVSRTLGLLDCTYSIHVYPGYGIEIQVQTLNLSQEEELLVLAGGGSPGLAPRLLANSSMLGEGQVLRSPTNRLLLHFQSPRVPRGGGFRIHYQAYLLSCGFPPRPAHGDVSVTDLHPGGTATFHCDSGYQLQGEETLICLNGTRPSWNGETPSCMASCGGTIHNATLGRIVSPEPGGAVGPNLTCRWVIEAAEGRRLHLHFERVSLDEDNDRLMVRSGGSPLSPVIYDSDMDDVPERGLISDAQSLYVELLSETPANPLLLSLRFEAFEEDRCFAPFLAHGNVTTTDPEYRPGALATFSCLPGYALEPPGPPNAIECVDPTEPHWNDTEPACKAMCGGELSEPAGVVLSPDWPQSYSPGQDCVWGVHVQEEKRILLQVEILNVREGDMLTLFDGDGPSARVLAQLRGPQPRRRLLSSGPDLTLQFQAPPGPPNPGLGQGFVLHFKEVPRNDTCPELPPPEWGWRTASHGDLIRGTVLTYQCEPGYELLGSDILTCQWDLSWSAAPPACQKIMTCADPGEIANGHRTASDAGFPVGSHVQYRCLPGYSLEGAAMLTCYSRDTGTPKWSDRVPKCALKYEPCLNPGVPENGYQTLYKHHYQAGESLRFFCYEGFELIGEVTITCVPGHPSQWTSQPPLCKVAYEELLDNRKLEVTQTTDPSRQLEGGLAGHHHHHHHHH
The experiment in a line: ELISA on plates coated with SEZ6L2 protein.

Assay [4] deals with T4, mouse SEZ6 on Neuro2a cells (mouse, UniProt Q7TSK2 20-991).
T4 construct: endogenous on Neuro2a cells; also called murine SEZ6; mSEZ6
The experiment in a line: flow cytometry on Neuro2a cells expressing mouse SEZ6.

The target of assay [5] is T5, rat SEZ6 on RIN-m5F cells (rat, UniProt Q7TSK2 20-991 (mouse entry)).
T5 construct: endogenous on RIN-m5F cells; also called rSEZ6
T5 chain: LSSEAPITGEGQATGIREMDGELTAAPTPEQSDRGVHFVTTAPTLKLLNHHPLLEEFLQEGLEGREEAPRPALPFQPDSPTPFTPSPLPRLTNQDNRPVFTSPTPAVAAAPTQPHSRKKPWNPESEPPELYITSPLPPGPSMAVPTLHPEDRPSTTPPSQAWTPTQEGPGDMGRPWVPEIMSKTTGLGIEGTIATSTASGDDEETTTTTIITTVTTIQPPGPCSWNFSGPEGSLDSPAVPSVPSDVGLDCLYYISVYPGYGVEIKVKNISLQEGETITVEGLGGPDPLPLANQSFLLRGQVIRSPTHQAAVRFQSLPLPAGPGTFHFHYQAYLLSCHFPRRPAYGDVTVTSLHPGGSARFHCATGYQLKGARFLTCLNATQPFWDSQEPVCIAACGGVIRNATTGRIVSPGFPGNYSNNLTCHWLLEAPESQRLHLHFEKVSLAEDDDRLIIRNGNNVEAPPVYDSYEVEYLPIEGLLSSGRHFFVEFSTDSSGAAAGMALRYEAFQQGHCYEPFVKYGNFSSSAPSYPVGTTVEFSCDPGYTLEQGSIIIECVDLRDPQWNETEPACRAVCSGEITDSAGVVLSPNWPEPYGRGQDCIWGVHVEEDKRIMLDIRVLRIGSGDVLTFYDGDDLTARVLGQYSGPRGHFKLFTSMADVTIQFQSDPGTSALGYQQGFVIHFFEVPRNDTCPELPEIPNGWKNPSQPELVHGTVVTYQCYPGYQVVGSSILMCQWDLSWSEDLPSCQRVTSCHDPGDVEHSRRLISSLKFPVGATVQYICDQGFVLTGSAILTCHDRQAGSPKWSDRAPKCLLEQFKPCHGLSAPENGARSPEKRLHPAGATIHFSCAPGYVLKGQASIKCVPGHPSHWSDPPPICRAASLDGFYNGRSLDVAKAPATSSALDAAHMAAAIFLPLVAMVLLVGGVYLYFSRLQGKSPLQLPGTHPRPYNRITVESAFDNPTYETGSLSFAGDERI
The experiment in a line: flow cytometry on RIN-m5F cells expressing rat SEZ6, verified by BLI or SPR on rat SEZ6-His.

For assay [6], the target named is T1, hSEZ6-ECD-His. The experiment in a line: bio-layer interferometry (ForteBio RED) or surface plasmon resonance (Biacore 2000) on human SEZ6-His; the table does not say which; column Hu Affinity (Kd, nM).
Assay [7] has as its target T6, SEZ6 Sushi Domain 1 (amino acids 336-395) on yeast (human, UniProt Q53EL9 355-414).
T6 construct: yeast display
The experiment in a line: yeast display, flow cytometry.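 Further: antibody binding to individual SEZ6 domains displayed on yeast, measured by flow cytometry, antibody at 50 nM purified or hybridoma supernatant diluted 1:2, 90 min on ice.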

For assay [8], the target named is T7, SEZ6 N1 (amino acids 1-70) on yeast (human, UniProt Q53EL9 20-89).
T7 construct: yeast display
T7 sequence: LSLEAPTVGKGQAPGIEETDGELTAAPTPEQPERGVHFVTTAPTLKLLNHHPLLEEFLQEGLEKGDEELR
The experiment in a line: yeast display, flow cytometry.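 Further: antibody binding to individual SEZ6 domains displayed on yeast, measured by flow cytometry, antibody at 50 nM purified or hybridoma supernatant diluted 1:2, 90 min on ice.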

B1: hSC17.28 (antibody, human IgG1, V domains shown)
VH: QVQLVQSGAEVKKPGASVKVSCKASGYTFTRSYIHWVRQAPGQGLEWMGYISSGSGGTTYNQKFKGRVTSTRDTSISTAYMELSRLRSDDTAVYYCARGGVRYFDVWGQGTTVTVSS
VL: EIVLTQSPDFQSVTPKEKVTITCRASQSIGTSIHWYQQKPDQSPKLLIKYASESISGVPSRFSGSGSGTDFTLTINSLEAEDAATYYCQQSNSWPLTFGQGTKLEIK
notes: humanized, human IgG1/kappa
With B1, the binding result in assay [1] was “binds”.

B2: SC17.45 (antibody, V domains shown)
VH: QVQLQQPGSVLVRPGDSVKLSCKASGYTFTSYWMHWVKQSPGQGLEWIGEIHPHSGSTNYNEKFKGKATLTVDTSSSTAYVDLSSLTSEDSAVYYCVGGHYDYWGQGTTLTVSS
VL: ENVLTQSPAIMSASPGEKVTMTCSASSSVNYMYWYQQKSSTSPKLWIYDTSKLTSGVPGRFSGSGSGNSYSLTISNMEAEDVATYYCFQGSGYPLTFGSGTKLEIK
notes: murine mAb
Consider B2, for which the binding result is on record as “no binding (tested: 1 µg/mL)” in assay [2], “no binding (tested: 1 µg/mL)” in assay [3], “no binding (tested: 5 µg/mL)” in assay [4] and “no binding (tested: 5 µg/mL)” in assay [5]. For the same molecule, in assay [6], the Kd stood at 17.4 nM.

B3: hSC17.17 (antibody, human IgG1, V domains shown)
VH: QVQLVQSGAEVKKPGASVKVSCKASGYTFTDYNMHWVRQAPGQGLEWMGEINPNIGGTGYNQKFKGRVTMTRDTSISTAYMELSRLRSDDTAVYYCARTYSYYSYEFAYWGQGTLVTVSS
VL: EIVLTQSPATLSLSPGERATLSCSASSSVSYMHWYQQKPGQAPRLLIYDTSKLPSGIPARFSGSGSGTDFTLTISSLEPEDFAVYYCQQWSSTPPTFGQGTKLEIK
notes: humanized, human IgG1/kappa
Consider B3, for which the binding result in assay [1] is recorded as “binds”.

B4: hSC17.16 (antibody, human IgG1, V domains shown)
VH: QVQLVQSGAEVKKPGASVKVSCKASGYTFTDYNMYWVRQAPGQGLEWMGEINPNNGGTAYNQKFRGKVTMTRDTSISTAYMELSRLRSDDTAVYYCARYDKGFDYWGQGTTVTVSS
VL: DIQMTQSPSSLSASVGDRVTITCRASANINSNLVWYQQKPGKAPKLLIYAATNLADGVPSRFSGSGSGTDFTLTISSLQPEDFATYYCQHFWGTPRTFGGGTKLEIK
notes: humanized; human IgG1 heavy and human kappa light constant regions
For B4, the binding result in assay [1] is “binds”.

B5: SC17.87 (antibody, V domains shown)
VH: EVQLQQSGAELLKPGASVKLSCTASGLNIKDYYIHWVYQRPEQGLEWIGRIDPESDNTLYDPKFQGKASITADTSSNTAYLQLSSLTSEDTAVYYCTTNTPFAYWGQGTLVTVST
VL: DVVMTQTPLSLPVSLGDQASISCRSSQSLVHSNGNTYLHWYLQKPGQSPKLLISKVSNRFSGVPDRFSGSGSGTDFTLKISRVEAEDLGVYFCSQSTHVPPMFGGGTRLEIK
notes: murine mAb
As to B5, in assay [7], the binding result is given as “binds”.

B6: SC17.97 (antibody, V domains shown)
VH: QVQLPQSGAELAKPGASVKISCKASGFTFTSYWMHWVKQRPGQGLEWIGYINPSTDYTEYNQKFKDKATLTADKSSSTAYMQLGSLTSEDSAVYYCARSSYGSSPFDYWGQGSTLTVSS
VL: DVVMTQTPLSLPVSLGDQASISCRSSQSLVHNNGNTYLHWYLQKPGQSPNLLIYKVSNRFSGVPDRFSGSGSGTDFTLKISIVEAEDLGLYFCSQSTHVPRTFGGGTKLEIK
notes: murine mAb
As for B6, in assay [7], the binding result is “binds”.

B7: SC17.187 (antibody, V domains shown)
VH: EVHLQQSGPELVNPGSSVKISCKAAGYTFTDYNMDWVKQSHGKRLEWIGNIYPNNGGAGYNQNFKDKATLTVDKSSSTAYMELRSLTSEDSAVYYCARSITAAWFAYWGQGTLVTVSA
VL: DIKMTQSPSSMYASLGERVTLTCKASQDINSYLSWFQQKPGKSPETLIYRANRLIDGVPSRFSGSGSGQDYSLTISSLEYEDMGIYYCLQYDEFPPTFGGGTKLEIK
notes: murine mAb
B7: in assay [7], the binding result is “binds”.

B8: SC17.4 (antibody, V domains shown)
VH: QIQLVQSGPELKKPGETVKISCKASGYTFTDYSMHWVKQAPGKGLKWLGWINTETGEPTYSEDFKGRFAFSLETSASTAYLQINNLKNEDTATYFCVKNKGWFAYWGQGTLVTVSA
VL: DIKMTQSPSSMYASLGERVTITCKASQDINSYLTWFQQKPGKSPKTLIYRANRLIDGVPSRFSGSGSGQDYSLTISSLDYEDMGIYYCLQYDDFPWTFGGGTKLEIK
notes: murine mAb
Turning to B8, the binding result is “binds” in assay [8]; “no binding (tested: 1 µg/mL)” in assay [2]; “no binding (tested: 1 µg/mL)” in assay [3]; “no binding (tested: 5 µg/mL)” in assay [4]; “no binding (tested: 5 µg/mL)” in assay [5].

B9: SC17.82 (antibody, V domains shown)
VH: EVQLQQSGPELVKPGASVKMSCKASGYTFTDSYMNWVKQSHGKSLEWIGRVNPNNGGASYNHKFKGKATLTVDKSLSTAYMRLNSLTSEDSAVYYCSRSGDLYYYAMDYWGQGTSVTVSS
VL: QIVLTQSPAIMSASLGEEITLTCSASSSVSYMHWYQQKSGTSPKLLIYSTSNLASGVPSRFSGSGSGTFYSLTISSVEAEDAADYYCHQWSSFTFGSGTKLEIK
notes: murine mAb
On to B9, for which the binding result in assay [7] is recorded as “binds”.

B10: SC17.200 (antibody, V domains shown)
VH: QVQLQQSGPELVKPGASVKISCKASGYAFSSSWINWVKQRPGQGLEWIGRIYPGEGDTNYSGNFEGKATLTADKSSTTAYMQLSSLTSVDSAVYFCTRGLVMDYWGQGTALTVSS
VL: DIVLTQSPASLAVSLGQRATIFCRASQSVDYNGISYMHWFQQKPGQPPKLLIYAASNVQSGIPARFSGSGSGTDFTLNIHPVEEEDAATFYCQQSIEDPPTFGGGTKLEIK
notes: murine mAb
As to B10, the binding result in assay [7] is listed as “binds”.

B11: SC17.49 (antibody, V domains shown)
VH: QVQLQQSGAELVRPGASVTLSCKASGYTFTDYEMHWVKQTPVHGLEWIGGIDPETGGTAYNQKFKGKATLTADKSSSTAYMELRSLTSEDSAVYFCTRWFSYWGPGTLVTVSA
VL: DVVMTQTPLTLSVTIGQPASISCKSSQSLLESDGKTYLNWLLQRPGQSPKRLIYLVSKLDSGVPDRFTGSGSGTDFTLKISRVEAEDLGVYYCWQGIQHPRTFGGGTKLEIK
notes: murine mAb
With B11, the binding result in assay [2] is recorded as “no binding (tested: 1 µg/mL)”; in assay [3], “no binding (tested: 1 µg/mL)”; in assay [4], “no binding (tested: 5 µg/mL)”; in assay [5] it was “no binding (tested: 5 µg/mL)”. This molecule came in with a Kd in assay [6] of 23.1 nM.
